T1: peptide #26 of the human ADAM28s peptide array (ENFSKWRGSVLS) (human)
T1 construct: 12-mer partial peptide of human ADAM28s, immobilized on an array
T1 peptide: ENFSKWRGSVLS

T2: peptide #25 of the human ADAM28s peptide array (FTLENFSKWRGS) (human)
T2 construct: 12-mer partial peptide of human ADAM28s, immobilized on an array
T2 peptide: FTLENFSKWRGS

T3: fusion protein of region 399-540 of human ADAM28s added to the C-terminal of MBP (human)
T3 chain: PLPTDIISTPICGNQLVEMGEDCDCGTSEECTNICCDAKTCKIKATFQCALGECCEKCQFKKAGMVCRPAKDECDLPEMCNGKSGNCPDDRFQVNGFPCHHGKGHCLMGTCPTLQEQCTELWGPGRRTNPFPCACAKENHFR

T4: fusion protein of region 491-540 of human ADAM28s added to the C-terminal of MBP (human)
T4 construct: also called MBP-ADAM28s 491-540
T4 chain: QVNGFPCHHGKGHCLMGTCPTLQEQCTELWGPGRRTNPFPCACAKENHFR

B1: anti-human ADAM28 human antibody 211-12 (antibody, V domains shown)
VH: QVQLVQSGAEVKKPGESLKISCKGSGYSFTSYWIAWVRQMPGKGLEWMGIIYPSDSYTRYSPSFQGQVTISADKSISTAYLQWSSLKASDTAMYYCARWSWMGRGFDNWGQGTLVTVSS
VL: DIQMTQSPSSLSASVGDRVTITCRASQDISSYLNWYQQKPGKAPKLLIYGVSTLQSGVPSRFSGSGSGTDFTLTISSLQPEDFATYYCLQYDSLPSTFGQGTKVEIKR
notes: Clone from the HuCAL GOLD phage library, first made as Fab, then converted to IgG (heavy chain constant region IgG1) in HEK293T cells; It was HRP-labeled in the peptide array
B2: anti-human ADAM28 human antibody 211-14 (antibody, V domains shown)
VH: QVQLQQSGPGLVKPSQTLSLTCAISGDSVSSNTAAWGWIRQSPGRGLEWLGVIYYRSKWYNDYAVSVKSRITINPDTSKNQFSLQLNSVTPEDTAVYYCARYKESIPEYGFDFWGQGTLVTVSS
VL: DIVMTQSPLSLPVTPGEPASISCRSSQSLLYSNGYIYLNWYLQKPGQSPQLLIYLGSNRASGVPDRFSGSGSGTDFTLKISRVEAEDVGVYYCFQYGGSPLTFGQGTKVEIKR
notes: Clone from the HuCAL GOLD phage library, first made as Fab, then converted to IgG (heavy chain constant region IgG1)

What was measured:
[1] = biological target: T1, peptide #26 of the human ADAM28s …; test: peptide array, HRP-labeled antibody
Method: (§1) Specifically, as shown below, a peptide array consisting of peptides having the residue number of 12 amino acid residues with an offset of 3 amino acid residues were prepared for a sequence covering from the protease domain to the C-terminal of human ADAM28s. HRP-labeled anti-human ADAM28s antibody was reacted with the peptide array.

[2] = biological target: T2, peptide #25 of the human ADAM28s …; test: peptide array, HRP-labeled antibody
Method: as §1

[3] = biological target: T3, fusion protein of region 399-540 of …; test: Western blotting of MBP fusion proteins
[4] = biological target: T4, fusion protein of region 491-540 of …; test: Western blotting of MBP fusion proteins

Row | Binder | binding result [1] | binding result [2] | binding result [3] | binding result [4]
1 | B1 | binds | binds | – | –
2 | B2 | – | – | binds | binds
